Source: patent publication US20190160181A1

Molecular target: Human cyclized NaPi2b peptide (human)
Experiment: ELISA on plate-coated human cyclized NaPi2b peptide, one site-specific binding fit

B1: XMT-1535 (antibody, V domains shown)
VH: QVQLVQSGAEVVKPGASVKMSCKASGYTFTGYNIHWVKQAPGQGLEWIGAIYPGNGDTSYKQKFRGRATLTADTSTSTVYMELSSLRSEDSAVYYCARGETARATFAYWGQGTLVTVSS
VL: DIQMTQSPSSLSASVGDRVTITCSASQDIGNFLNWYQQKPGKTVKVLIYYTSSLYSGVPSRFSGSGSGTDYTLTISSLQPEDFATYYCQQYSKLPLTFGQGTKLELKR
**Q.** With B1 as the binder, how does the Kd read?
**A.** The Kd was 0.536 nM.
